In patent US20240310359A1 one finds KCl response (normalized ratio to vector control), Releasable Ca^2+ level from SR (normalized ratio to vector control) and Caffeine response (normalized ratio to vector control) data, which are given here for three substances.

The test has as its target SERCA1a, mouse (endogenous, differentiated skeletal muscle cells) (mouse) (UniProt Q8R429). Nature of the test: cell-based or functional assay.

Chain of SERCA1a, mouse (endogenous, differentiated skeletal muscle cells) (mouse) (Q8R429 whole entry): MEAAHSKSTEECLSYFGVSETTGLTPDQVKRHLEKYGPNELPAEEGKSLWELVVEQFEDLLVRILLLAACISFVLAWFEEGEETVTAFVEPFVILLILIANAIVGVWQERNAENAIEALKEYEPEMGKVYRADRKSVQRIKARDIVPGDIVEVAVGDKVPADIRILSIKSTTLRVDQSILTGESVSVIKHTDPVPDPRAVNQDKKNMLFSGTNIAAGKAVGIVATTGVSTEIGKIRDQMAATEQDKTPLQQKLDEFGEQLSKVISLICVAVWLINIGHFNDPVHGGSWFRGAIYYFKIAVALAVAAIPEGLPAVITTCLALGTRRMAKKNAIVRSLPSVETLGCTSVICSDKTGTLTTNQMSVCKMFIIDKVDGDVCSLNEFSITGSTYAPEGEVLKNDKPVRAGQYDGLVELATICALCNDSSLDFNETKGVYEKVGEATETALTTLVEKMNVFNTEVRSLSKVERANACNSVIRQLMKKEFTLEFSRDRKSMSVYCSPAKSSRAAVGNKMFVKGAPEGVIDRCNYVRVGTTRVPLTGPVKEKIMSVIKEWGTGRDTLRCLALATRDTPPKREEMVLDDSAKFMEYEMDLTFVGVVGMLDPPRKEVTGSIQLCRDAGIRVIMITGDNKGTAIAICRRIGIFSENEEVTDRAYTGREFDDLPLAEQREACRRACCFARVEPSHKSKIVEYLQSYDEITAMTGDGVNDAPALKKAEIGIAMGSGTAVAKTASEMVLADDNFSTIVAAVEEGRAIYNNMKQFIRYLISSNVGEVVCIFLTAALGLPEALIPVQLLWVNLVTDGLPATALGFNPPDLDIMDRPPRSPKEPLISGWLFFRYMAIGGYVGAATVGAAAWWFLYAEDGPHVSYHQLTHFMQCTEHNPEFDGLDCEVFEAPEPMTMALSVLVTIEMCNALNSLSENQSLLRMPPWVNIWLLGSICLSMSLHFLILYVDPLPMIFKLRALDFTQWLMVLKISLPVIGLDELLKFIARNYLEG
Chain of NHL-Del (mutant of TRIM32 without NHL repeats, expressed from pEGFP-N1 in mouse differentiated skeletal muscle cells) (Q13049 1-361, stated change not applied): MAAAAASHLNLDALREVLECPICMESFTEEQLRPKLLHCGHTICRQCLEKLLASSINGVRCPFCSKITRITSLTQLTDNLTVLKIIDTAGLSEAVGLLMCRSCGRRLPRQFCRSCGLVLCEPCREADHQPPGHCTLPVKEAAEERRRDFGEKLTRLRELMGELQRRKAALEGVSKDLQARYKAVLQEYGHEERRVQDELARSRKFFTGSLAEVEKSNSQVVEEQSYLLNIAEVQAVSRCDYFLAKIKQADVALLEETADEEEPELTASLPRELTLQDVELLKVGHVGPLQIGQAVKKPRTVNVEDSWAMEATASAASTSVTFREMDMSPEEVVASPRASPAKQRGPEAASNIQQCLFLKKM
Chain of wild-type TRIM32 (expressed from pEGFP-N1 in mouse differentiated skeletal muscle cells) (from UniProt Q13049 1-653) (enzyme) (Q13049 whole entry): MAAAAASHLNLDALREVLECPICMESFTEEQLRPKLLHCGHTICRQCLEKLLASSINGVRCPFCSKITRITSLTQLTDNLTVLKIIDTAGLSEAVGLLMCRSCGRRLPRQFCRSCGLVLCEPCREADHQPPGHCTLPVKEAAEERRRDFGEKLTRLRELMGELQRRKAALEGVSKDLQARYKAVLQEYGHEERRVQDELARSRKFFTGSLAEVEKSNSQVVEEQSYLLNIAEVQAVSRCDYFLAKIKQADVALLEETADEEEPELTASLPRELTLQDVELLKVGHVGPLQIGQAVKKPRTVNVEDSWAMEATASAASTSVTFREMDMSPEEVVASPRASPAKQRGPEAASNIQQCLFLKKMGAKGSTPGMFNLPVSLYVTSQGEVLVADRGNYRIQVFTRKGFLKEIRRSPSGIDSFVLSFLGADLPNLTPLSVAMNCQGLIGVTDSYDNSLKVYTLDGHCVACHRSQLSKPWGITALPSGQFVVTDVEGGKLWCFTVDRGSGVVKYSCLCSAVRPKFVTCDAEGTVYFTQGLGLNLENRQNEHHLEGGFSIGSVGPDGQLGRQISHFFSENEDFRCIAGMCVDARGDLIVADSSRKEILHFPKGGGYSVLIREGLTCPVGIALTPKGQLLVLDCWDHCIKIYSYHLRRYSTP
Chain of wild-type TRIM32 (expressed from pEGFP-N1 in mouse differentiated skeletal muscle cells) (from UniProt Q13049 1-653) (Q13049 whole entry): as above

Take “wild-type TRIM32 (expressed from pEGFP-N1 in mouse differentiated skeletal muscle cells) (from UniProt Q13049 1-653) (enzyme)”: the KCl response (normalized ratio to vector control) stood at 1.27 and the Releasable Ca^2+ level from SR (normalized ratio to vector control) was 1.48.
In the case of “NHL-Del (mutant of TRIM32 without NHL repeats, expressed from pEGFP-N1 in mouse differentiated skeletal muscle cells) (from UniProt Q13049 1-361) (enzyme)”, the Caffeine response (normalized ratio to vector control) came to 0.97, the KCl response (normalized ratio to vector control) was found to be 0.94 and the Releasable Ca^2+ level from SR (normalized ratio to vector control) was found to be 0.99.
For “wild-type TRIM32 (expressed from pEGFP-N1 in mouse differentiated skeletal muscle cells) (from UniProt Q13049 1-653)”, the Caffeine response (normalized ratio to vector control) was found to be 1.22.
